Measured values as given in publication PMC3961380, “Activation of 2′ 5′-Oligoadenylate Synthetase by Stem Loops at the 5′-End of the West Nile Virus Genome”.

Columns and labels:
[1] = test system: T1, OAS1 p42 isoform (transcript variant 2), wild type (human), P00973-2; assay: OAS1 activation kinetics (Kapp, PPi assay); details: pH 7.5, 10 min at room temperature (~20 C)
T1 sequence: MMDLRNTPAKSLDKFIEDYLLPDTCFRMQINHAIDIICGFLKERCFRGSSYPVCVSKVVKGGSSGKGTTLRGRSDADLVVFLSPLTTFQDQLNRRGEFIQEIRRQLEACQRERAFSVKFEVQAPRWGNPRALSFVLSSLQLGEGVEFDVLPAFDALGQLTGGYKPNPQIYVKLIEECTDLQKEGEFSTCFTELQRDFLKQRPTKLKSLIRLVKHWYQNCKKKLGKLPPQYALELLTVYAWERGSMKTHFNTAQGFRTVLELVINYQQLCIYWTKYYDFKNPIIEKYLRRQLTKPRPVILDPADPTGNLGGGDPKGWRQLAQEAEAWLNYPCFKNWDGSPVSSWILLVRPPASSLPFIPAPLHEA

OAS1 S162G (human) = assay: OAS1 activation kinetics (Kapp, PPi assay); details: pH 7.5, 10 min at room temperature (~20 C)
[2] = target: T2, OAS1 p42 isoform (transcript variant 2), wild type (human, UniProt P00973-2 1-364); assay: OAS1 activation kinetics (Kapp NA); 400 nM OAS1; no detectable affinity; […], pH 7.5, 10 min at room temperature (~20 C); […]; details: protein: recombinant; tags: none after TEV cleavage of N-terminal GNSHT tag (GB1, NusA, Streptavidin, 6xHis); label: none (SYBR Gold stain); stem loop
T2 sequence: T1 sequence

[3] = target: T2, OAS1 p42 isoform (transcript variant …); assay: OAS1 activation kinetics (Kapp, PPi assay); 400 nM OAS1; […], pH 7.5, 10 min at room temperature (~20 C); […]; details: protein: recombinant; tags: none after TEV cleavage of N-terminal GNSHT tag (GB1, NusA, Streptavidin, 6xHis); label: none (SYBR Gold stain); two stem loops

## WNV SLI
[1]
  K half: 5830 nM

## WNV SLI/II
[1]
  K half: 528 nM

## WNV SLI/II/III
[1]
  K half: 1450 nM
OAS1 S162G (human)
  K half: 1490 nM

B1: WNV SLIII (structured_RNA)
RNA: AGGAGGGCCCGGCAAGAGCCGGGCUGUCAAUAUGCU
[2]
  binding result: no binding

B2: WNV SLII (structured_RNA)
RNA: GCUGUUUCUUAGCACGAAGAUCUCGAUGUCUAAGAAACC
[2]
  binding result: no binding

B3: WNV SLII/III (structured_RNA)
RNA: GCUGUUUCUUAGCACGAAGAUCUCGAUGUCUAAGAAACCAGGAGGGCCCGGCAAGAGCCGGGCUGUCAAUAUGCU
[3]
  apparent K (half saturation): 5.78 ± 0.452 µM
